Consider two molecules from paper PMC11497264, “SARS‐CoV‐2 Spike Protein‐Derived Cyclic Peptides as Modulators of Spike Interaction with GRP78” (Chembiochem, 2024).

Bridge positions count the residues as written; N and C are the ends.

A word on the IC50: it is the concentration at which inhibition is half-maximal. As usually defined, the Kd is the concentration at which binding is half-saturated. A higher Kd goes with weaker binding.

This assay addresses T1, human glucose-regulated protein GRP78 (human, UniProt P11021 19-654).
T1 construct: also called heat shock protein A5; HSPA5; source: Escherichia coli, recombinant; bought: Abcam
The assay can be described thus: SPR. Conditions: both partners purified.

T1 sequence (P11021 19-654): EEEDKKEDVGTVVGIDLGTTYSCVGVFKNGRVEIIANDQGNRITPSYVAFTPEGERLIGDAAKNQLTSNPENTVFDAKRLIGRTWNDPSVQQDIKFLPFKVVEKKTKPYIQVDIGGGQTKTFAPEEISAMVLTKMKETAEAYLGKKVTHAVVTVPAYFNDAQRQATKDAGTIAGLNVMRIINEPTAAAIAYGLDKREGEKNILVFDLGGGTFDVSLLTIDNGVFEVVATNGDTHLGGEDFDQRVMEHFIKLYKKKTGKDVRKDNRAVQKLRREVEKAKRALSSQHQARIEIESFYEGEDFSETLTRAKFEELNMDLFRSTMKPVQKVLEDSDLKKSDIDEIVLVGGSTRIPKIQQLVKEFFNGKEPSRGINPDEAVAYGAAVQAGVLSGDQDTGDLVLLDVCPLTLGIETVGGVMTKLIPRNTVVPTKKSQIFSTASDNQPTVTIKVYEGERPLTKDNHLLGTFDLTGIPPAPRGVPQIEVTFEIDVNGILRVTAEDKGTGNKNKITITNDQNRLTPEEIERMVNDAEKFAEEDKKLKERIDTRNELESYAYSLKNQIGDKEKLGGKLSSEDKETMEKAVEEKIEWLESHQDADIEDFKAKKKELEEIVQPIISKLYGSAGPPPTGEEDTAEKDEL

B1: LCP W, loop-derived cyclic peptide based on spike residues 480-488 of the Wuhan strain (peptide)
peptide: H-CNGVEGFNC-NH2
modifications: disulfide 1-9
SMILES: CC(C)[C@@H]1NC(=O)CNC(=O)[C@H](CC(N)=O)NC(=O)[C@@H](N)CSSC[C@@H](C(N)=O)NC(=O)[C@H](CC(N)=O)NC(=O)[C@H](Cc2ccccc2)NC(=O)CNC(=O)[C@H](CCC(=O)O)NC1=O
notes: also called Wuhan loop peptide; Wuhan peptide
In turn, B1 yielded an IC50 of 763 nM.

B2: LCP O, loop-derived cyclic peptide based on spike residues 480-488 of the Omicron strain (peptide)
peptide: H-CNGVAGFNC-NH2
modifications: disulfide 1-9
SMILES: CC(C)[C@@H]1NC(=O)CNC(=O)[C@H](CC(N)=O)NC(=O)[C@@H](N)CSSC[C@@H](C(N)=O)NC(=O)[C@H](CC(N)=O)NC(=O)[C@H](Cc2ccccc2)NC(=O)CNC(=O)[C@H](C)NC1=O
notes: also called Omicron loop peptide; Omicron peptide
B2 yielded an IC50 of 693 nM and a Kd of 2000 nM.
